From paper PMC10256740 come the findings set out here.

Assay [1] addresses FLAG-tagged BicD2-Kif1bα tail fusion (mouse) (UniProt Q60575). Description: centrosome recruitment assay with BicD2-kinesin tail fusions (relocalisation in cells, microscopy); N2A cells transfected with FLAG-BicD2-KIF tail fusion and EGFP-tagged RBP (2:3), fixed after 24 h, anti-FLAG staining; read-out log2 of the mean EGFP intensity at the centrosome over the mean intensity in the whole cell.

Assay [2] concerns the target FLAG-tagged BicD2-Kif1c tail fusion (mouse) (UniProt O35071). The description is as above.

Chain of FLAG-tagged BicD2-Kif1c tail fusion (mouse) (O35071 whole entry, the tested form may be a part): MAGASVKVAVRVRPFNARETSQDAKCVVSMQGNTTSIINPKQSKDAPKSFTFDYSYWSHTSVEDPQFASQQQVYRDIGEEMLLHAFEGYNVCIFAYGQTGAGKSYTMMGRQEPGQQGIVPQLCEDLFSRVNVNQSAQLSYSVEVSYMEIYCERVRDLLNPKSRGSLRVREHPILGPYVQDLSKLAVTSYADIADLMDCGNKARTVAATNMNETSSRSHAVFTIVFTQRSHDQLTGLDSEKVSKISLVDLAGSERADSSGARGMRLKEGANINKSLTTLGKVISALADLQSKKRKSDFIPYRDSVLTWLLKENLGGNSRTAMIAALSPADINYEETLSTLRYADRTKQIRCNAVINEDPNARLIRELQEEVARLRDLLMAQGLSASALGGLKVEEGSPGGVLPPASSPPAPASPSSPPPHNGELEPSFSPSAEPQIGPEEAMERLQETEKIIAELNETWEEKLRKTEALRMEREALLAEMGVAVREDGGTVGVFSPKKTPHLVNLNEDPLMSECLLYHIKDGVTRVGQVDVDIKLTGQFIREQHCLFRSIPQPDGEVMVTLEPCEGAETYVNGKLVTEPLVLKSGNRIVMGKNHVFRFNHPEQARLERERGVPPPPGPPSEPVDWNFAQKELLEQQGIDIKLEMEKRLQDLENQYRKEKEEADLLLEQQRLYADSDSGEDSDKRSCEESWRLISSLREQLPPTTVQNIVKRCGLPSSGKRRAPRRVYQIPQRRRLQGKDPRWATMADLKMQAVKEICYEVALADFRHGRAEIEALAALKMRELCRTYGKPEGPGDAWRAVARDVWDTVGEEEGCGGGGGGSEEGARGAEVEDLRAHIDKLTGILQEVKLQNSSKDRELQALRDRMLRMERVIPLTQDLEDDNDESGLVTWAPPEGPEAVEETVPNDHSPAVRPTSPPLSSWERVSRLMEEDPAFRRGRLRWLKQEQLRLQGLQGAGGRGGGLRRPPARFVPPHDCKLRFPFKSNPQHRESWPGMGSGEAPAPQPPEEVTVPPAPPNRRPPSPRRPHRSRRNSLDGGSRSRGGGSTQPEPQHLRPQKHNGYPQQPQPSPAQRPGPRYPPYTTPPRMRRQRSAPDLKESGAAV
Chain of FLAG-tagged BicD2-Kif1bα tail fusion (mouse) (Q60575 other isoform, or with tags, fused parts or gaps): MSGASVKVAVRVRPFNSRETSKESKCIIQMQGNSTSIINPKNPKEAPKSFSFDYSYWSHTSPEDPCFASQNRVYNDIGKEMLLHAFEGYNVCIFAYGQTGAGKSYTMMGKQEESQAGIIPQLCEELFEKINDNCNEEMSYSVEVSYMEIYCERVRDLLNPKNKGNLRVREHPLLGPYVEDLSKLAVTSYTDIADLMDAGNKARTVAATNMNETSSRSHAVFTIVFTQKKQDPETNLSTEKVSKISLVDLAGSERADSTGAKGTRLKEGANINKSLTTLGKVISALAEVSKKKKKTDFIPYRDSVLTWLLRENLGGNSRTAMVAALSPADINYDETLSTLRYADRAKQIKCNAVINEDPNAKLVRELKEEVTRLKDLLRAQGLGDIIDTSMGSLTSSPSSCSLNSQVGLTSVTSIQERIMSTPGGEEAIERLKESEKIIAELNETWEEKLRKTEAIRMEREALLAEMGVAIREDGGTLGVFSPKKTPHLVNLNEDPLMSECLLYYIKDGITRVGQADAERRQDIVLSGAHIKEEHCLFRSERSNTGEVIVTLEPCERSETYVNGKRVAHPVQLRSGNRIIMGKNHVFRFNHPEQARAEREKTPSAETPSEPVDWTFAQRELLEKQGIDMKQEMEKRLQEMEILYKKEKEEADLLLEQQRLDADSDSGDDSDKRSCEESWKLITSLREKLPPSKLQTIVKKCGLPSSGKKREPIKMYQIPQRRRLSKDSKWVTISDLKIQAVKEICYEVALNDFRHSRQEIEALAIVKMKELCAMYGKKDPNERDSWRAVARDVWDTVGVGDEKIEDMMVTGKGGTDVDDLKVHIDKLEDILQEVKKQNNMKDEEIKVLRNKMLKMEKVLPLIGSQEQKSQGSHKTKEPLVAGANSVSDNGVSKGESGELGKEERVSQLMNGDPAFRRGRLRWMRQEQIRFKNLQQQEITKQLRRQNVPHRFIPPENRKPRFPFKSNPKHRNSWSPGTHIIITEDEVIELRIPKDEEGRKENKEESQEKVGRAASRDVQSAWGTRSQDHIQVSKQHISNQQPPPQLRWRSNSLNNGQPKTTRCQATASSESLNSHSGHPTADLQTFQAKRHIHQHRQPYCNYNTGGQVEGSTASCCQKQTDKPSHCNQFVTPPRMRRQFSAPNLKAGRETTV

B1: EGFP-Tis11d (natural protein)
chain: MSTTLLSPFYDIDFLCKTEKSLANLNLNNMLDKKAVGTPVAAAPSSSFTPGFLRRHSASNLHALAHPVPSPGSCSPKFPGAPNGGGSSCGPAGGGGLASYGQLKEPSGGSGTALVTKESKFRDRSFSENGERSQHLLHLQQQQKGGSGSQINSTRYKTELCRPFEESGTCKYGEKCQFAHGFHELRSLTRHPKYKTELCRTFHTIGFCPYGPRCHFIHNADERRPAPSGGGGASGDLRAFGARDALHLGFAREPRPKLHHSLSFSGFPSGHHQPPGGLESPLLLDSPTSRTPPPPSSSASSCSSSASSCSSASAASTPSGAPTCCATAAAAALLYGPGGAEDLLSPGAPCASCSSSGANNAFAFGPELSSLITPLAIQTHNFAAAAAAAYYRNQQQGLTGPAPPPAQPPAAPAPPSPPFGFQLPRRLSESPVFDAPPSPPDSLSDRDSYLSGSLSSGSLSGSESPSLDPGRRLPIFSRLSISDD
In the case of B1, the log2 mean centrosome recruitment in assay [1] is 1.24 log2; in assay [2], 1.13 log2.
